Test results as given in patent US20140295495A1 (Biogen, published 2014).

Target: T1, human antigen that binds to mAb1 (human, UniProt Q96FE5 42-538, limits assumed)
T1 sequence (looked up): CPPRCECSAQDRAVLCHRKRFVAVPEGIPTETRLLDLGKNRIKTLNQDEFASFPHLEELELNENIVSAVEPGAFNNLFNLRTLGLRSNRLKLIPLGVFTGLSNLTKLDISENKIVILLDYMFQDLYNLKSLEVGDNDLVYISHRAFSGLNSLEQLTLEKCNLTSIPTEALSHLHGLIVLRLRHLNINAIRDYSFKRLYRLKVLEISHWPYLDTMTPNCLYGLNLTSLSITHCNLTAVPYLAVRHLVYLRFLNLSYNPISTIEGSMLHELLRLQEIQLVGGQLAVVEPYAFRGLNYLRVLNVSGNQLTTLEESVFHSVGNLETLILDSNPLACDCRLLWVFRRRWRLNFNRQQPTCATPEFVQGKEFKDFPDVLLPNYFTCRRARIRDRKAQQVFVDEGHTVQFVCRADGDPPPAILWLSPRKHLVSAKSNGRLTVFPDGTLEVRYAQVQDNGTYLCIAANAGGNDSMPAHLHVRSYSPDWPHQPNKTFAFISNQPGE
Test: direct binding ELISA, antigen coated on the plate, detection with AP-anti-human Fab
Method: Plates were washed 3 times with 350 μL of PBS using a plate washer and blocked with 1% BSA, 0.1% ovalbumin, and 0.1% non-fat dry milk in Hank's balanced salt buffer containing 25 mM HEPES (pH 7.0) for 1 hour at room temperature. Plates were then washed again, and incubated for 1 h with a 3-fold dilution series set up for each test compound (50 μL/well, 8 dilutions) starting at 10 μg/mL and all in 0.1% BSA, 0.1% ovalbumin, and 0.1% non-fat dry milk in Hank's balanced salt buffer containing 25 mM HEPES (pH 7.0), and again washed. […] Plates were read at 405 nm on a Molecular Devices plate reader. EC₅₀ values for binding were calculated from the titration curve using prism software.

| Binder | EC50 [nM] |
| --- | --- |
| mAb1-C (mAb1, anti-LINGO-1 antibody Li81, aglycosyl human IgG1; preparation with 39% trisulfide at the LC5-HC5 linkage) (antibody, V domains shown, 39% trisulfide at the LC5-HC5 linkage (heavy-light interchain Cys linkage)) VH: EVQLLESGGGLVQPGGSLRLSCAASGFTFSAYEMKWVRQAPGKGLEWVSVIGPSGGFTFYADSVKGRFTISRDNSKNTLYLQMNSLRAEDTAVYYCATEGDNDAFDIWGQGTTVTVSS VL: DIQMTQSPATLSLSPGERATLSCRASQSVSSYLAWYQQKPGQAPRLLIYDASNRATGIPARFSGSGSGTDFTLTISSLEPEDFAVYYCQQRSNWPMYTFGQGTKLEIK | 0.02 |
| mAb1-A (mAb1, anti-LINGO-1 antibody Li81, aglycosyl human IgG1; preparation with about 0.5% trisulfide at the LC5-HC5 linkage) (antibody, V domains shown, about 0.5% trisulfide at the LC5-HC5 linkage (heavy-light interchain Cys linkage), also called mAb-A) VH: EVQLLESGGGLVQPGGSLRLSCAASGFTFSAYEMKWVRQAPGKGLEWVSVIGPSGGFTFYADSVKGRFTISRDNSKNTLYLQMNSLRAEDTAVYYCATEGDNDAFDIWGQGTTVTVSS VL: DIQMTQSPATLSLSPGERATLSCRASQSVSSYLAWYQQKPGQAPRLLIYDASNRATGIPARFSGSGSGTDFTLTISSLEPEDFAVYYCQQRSNWPMYTFGQGTKLEIK | 0.02 |
